1 molecule from patent US20030108554A1 (published 2003) can be followed below.

In assay [1] the target is T1, GIP90 (GPBP interacting protein 90 kDa) (human, UniProt Q4L180 1-749, limits assumed).
T1 construct: Full length; tested as GAL4 domain fusion in yeast two-hybrid/three-hybrid; fusion parts are not written as pieces
T1 sequence: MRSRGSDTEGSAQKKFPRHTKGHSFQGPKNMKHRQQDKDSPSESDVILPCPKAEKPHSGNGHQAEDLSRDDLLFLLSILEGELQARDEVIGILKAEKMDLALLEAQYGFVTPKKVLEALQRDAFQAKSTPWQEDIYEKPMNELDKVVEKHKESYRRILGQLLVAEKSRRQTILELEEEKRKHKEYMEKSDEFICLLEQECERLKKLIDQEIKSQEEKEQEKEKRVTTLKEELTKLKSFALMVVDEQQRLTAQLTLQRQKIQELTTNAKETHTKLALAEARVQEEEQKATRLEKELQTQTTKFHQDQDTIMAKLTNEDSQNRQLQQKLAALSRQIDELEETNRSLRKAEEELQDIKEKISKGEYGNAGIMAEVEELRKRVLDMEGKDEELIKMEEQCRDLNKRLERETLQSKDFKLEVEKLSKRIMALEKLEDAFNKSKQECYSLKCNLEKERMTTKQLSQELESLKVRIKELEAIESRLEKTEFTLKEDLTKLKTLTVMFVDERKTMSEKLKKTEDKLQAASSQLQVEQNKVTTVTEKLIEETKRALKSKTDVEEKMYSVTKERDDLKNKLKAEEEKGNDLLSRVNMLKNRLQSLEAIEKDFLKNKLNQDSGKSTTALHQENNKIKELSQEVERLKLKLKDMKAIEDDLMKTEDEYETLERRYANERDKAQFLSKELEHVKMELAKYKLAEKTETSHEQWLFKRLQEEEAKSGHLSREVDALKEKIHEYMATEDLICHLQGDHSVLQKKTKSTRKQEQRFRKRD
Put plainly: yeast two-hybrid, β-galactosidase colony lift. On the procedure: Deletion mutants were obtained using specific primers and PCR, followed by cloning of the resulting cDNAs in the pGBT9 and pGAD424 vectors. The assays were performed in SFY526 or HF7c Saccharomyces cerevisiae strains, with pGBT9 as GAL4 binding domain vector and pGAD424 as GAL4 activation domain vector, by the lift colony assay procedure. Briefly, the yeast cells were co-transformed with constructs of both binding domain and activation domain vectors, and the co-transformants were selected in medium deficient in both tryptophan and leucine. After five days of incubation at 30° C. the colonies were tested for the expression of β-galactosidase with X-Gal substrate (0.75 mg/ml). […] When the assays were performed with the HF7c strain, the interactions were assessed by the lift colony assay procedure and by growth in medium deficient in histidine, tryptophan and leucine. For yeast three-hybrid system, we used the pBRIDGE vector, which allows the conditional expression of a third protein apart from the usual GAL4 binding and activation domain-fusion proteins of the two-hybrid system. In this case, the expression of GPBP or I-20 or GIP90 was driven by Met25 promoter, active in absence of methionine. In these experiments, the transformed SFY526 cells were plated in medium deficient in tryptophan, leucine and methionine, and subjected to the colony lift assay after five days at 30° C. […]

The target of a further assay is T2, GIP130c (human, UniProt Q4L180 1-1128).
T2 construct: Full length; tested as GAL4 domain fusion in yeast two-hybrid
T2 sequence: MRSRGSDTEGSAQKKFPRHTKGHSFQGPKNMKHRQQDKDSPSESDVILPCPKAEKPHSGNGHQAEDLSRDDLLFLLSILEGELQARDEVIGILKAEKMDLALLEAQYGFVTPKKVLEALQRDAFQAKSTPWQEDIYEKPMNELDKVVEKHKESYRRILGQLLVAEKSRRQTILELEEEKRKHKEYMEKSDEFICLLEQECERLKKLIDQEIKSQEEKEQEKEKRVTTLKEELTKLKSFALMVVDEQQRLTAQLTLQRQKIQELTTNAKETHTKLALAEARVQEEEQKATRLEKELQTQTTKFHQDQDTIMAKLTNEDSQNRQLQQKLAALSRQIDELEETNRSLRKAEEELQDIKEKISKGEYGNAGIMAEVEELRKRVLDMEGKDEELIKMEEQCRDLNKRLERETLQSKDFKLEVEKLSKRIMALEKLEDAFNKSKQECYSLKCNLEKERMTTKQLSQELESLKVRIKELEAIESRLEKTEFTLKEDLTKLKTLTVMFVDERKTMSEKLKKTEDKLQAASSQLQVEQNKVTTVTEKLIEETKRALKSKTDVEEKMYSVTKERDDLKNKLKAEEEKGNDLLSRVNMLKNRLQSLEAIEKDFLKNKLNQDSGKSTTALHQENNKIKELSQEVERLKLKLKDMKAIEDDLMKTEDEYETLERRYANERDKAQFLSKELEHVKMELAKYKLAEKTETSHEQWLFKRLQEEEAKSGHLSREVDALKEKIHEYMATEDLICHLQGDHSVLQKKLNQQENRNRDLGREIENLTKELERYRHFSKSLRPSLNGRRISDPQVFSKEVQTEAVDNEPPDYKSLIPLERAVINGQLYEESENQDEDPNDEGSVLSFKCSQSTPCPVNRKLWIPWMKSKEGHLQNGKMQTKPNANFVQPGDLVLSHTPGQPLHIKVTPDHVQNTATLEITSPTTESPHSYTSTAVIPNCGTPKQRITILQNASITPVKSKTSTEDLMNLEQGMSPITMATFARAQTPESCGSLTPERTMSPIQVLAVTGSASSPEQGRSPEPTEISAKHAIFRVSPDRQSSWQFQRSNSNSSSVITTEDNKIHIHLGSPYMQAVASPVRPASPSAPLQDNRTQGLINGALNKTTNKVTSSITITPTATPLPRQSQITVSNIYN
The assay is described as follows: yeast two-hybrid and three-hybrid (conclusion). On the procedure: Accordingly, we have observed with a yeast three-hybrid system that GPBP expression efficiently impairs both I-20 and GIP90 aggregation, and that I-20 and GIP90 efficiently impair GPBP aggregation.
Deletion mutants were obtained using specific primers and PCR, followed by cloning of the resulting cDNAs in the pGBT9 and pGAD424 vectors. The assays were performed in SFY526 or HF7c Saccharomyces cerevisiae strains, with pGBT9 as GAL4 binding domain vector and pGAD424 as GAL4 activation domain vector, by the lift colony assay procedure. Briefly, the yeast cells were co-transformed with constructs of both binding domain and activation domain vectors, and the co-transformants were selected in medium deficient in both tryptophan and leucine. After five days of incubation at 30° C. the colonies were tested for the expression of β-galactosidase with X-Gal substrate (0.75 mg/ml). […] When the assays were performed with the HF7c strain, the interactions were assessed by the lift colony assay procedure and by growth in medium deficient in histidine, tryptophan and leucine. For yeast three-hybrid system, we used the pBRIDGE vector, which allows the conditional expression of a third protein apart from the usual GAL4 binding and activation domain-fusion proteins of the two-hybrid system. In this case, the expression of GPBP or I-20 or GIP90 was driven by Met25 promoter, active in absence of methionine. In these experiments, the transformed SFY526 cells were plated in medium deficient in tryptophan, leucine and methionine, and subjected to the colony lift assay after five days at 30° C. In the case of the strain HF7c the colonies grown in the cited plates were streaked on medium with the additional deficiency of histidine.

B1: Goodpasture antigen binding protein (GPBP) (enzyme, UniProt Q9Y5P4 1-624, looked up)
chain: MSDNQSWNSSGSEEDPETESGPPVERCGVLSKWTNYIHGWQDRWVVLKNNALSYYKSEDETEYGCRGSICLSKAVITPHDFDECRFDISVNDSVWYLRAQDPDHRQQWIDAIEQHKTESGYGSESSLRRHGSMVSLVSGASGYSATSTSSFKKGHSLREKLAEMETFRDILCRQVDTLQKYFDACADAVSKDELQRDKVVEDDEDDFPTTRSDGDFLHSTNGNKEKLFPHVTPKGINGIDFKGEAITFKATTAGILATLSHCIELMVKREDSWQKRLDKETEKKRRTEEAYKNAMTELKKKSHFGGPDYEEGPNSLINEEEFFDAVEAALDRQDKIEEQSQSEKVRLHWPTSLPSGDAFSSVGTHRFVQKPYSRSSSMSSIDLVSASDDVHRFSSQVEEMVQNHMTYSLQDVGGDANWQLVVEEGEMKVYRREVEENGIVLDPLKATHAVKGVTGHEVCNYFWNVDVRNDWETTIENFHVVETLADNAIIIYQTHKRVWPASQRDVLYLSVIRKIPALTENDPETWIVCNFSVDHDSAPLNNRCVRAKINVAMICQTLVSPPEGNQEISRDNILCKITYVANVNPGGWAPASVLRAVAKREYPKFLKRFTSYVQEKTAGKPILF
notes: Protein kinase; Fusion parts are not written as pieces
With B1, the binding result (in assay [1]; with GIP130c) was “binds” in each case.
